Measured values published in US20170342169A1.

What was measured:
mouse 4-1BB (mouse) = mouse 4-1BB (mouse) (UniProt P20334); experiment: SPR
[1] = target: human mesothelin on cells (SN12C, OVCAR3, SW1990 endogenous; HEK293 transfectants) (human) (UniProt Q13421); experiment: FACS, SN12C cells (CA125-)
[2] = target: human mesothelin on cells (SN12C, OVCAR3, SW1990 endogenous; HEK293 transfectants) (human) (UniProt Q13421); experiment: FACS, OVCAR3 cells (CA125+)

Chain of mouse 4-1BB (mouse) (P20334 24-187): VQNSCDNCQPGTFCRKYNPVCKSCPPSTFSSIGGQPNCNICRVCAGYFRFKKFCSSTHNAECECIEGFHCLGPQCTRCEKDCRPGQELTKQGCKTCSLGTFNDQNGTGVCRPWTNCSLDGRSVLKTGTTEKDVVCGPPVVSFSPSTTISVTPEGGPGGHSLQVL
Chain of human mesothelin on cells (SN12C, OVCAR3, SW1990 endogenous; HEK293 transfectants) (human) (Q13421 other isoform, or with tags, fused parts or gaps limits assumed): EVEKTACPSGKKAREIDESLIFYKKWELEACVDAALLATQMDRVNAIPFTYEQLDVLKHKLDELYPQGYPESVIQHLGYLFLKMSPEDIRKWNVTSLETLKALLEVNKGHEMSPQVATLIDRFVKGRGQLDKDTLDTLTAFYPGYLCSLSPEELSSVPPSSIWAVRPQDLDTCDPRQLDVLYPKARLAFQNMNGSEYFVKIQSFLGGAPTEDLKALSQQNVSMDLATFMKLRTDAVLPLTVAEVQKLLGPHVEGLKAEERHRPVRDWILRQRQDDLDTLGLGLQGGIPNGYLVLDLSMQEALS

Row | Kd (mouse 4-1BB (mouse)) [nM] | koff (mouse 4-1BB (mouse)) [s⁻¹] | kon (mouse 4-1BB (mouse)) [M⁻¹ s⁻¹] | Maximum binding (MFI) [1] [MFI] | Maximum binding (MFI) [2] [MFI] | Substance
1 | 3.9 | 0.008 | 2.1e+06 |  |  | 1D8 (antibody)
2 |  |  |  | 40 | 70 | HuIgG1 control (antibody)
